Positions count from the first letter of the chain named.
B1: hu16G7VHv2b/hu16G7VLv2 (antibody, V domains shown)
VH: EVQLVQSGAEVVKPGASVKVSCKASGYTFTSSWIHWVRQRPGQGLEWIGEIYPNSGNTNYNEKFKGRVTLTRDISISTAYMELSRLTSDDTAVYYCARLGWLIPLDYWGQGTTVTVSS
VL: DIVLTQSPSSLAVSVGERATISCKSSQSLLDGNDQKNYLAWYQQKPGQSPKLLIYWASTRESGVPDRFSGSGSGTDFTLTISSLQAEDVAVYYCQQFYDYPWTFGGGTKLEIKR
B2: hu16G7VHv7/hu16G7VLv2 (antibody, V domains shown)
VH: B1 VH with S7P, V12K, R40A, I48M, L70M, R72V, T87R
VL: B1 VL
B3: hu16G7VHv2a/hu16G7VLv2 (antibody, V domains shown)
VH: B1 VH with R67K, V68A, R72V
VL: B1 VL
B4: chimeric 16G7 antibody (antibody, V domains shown)
VH: QVQLQQPGSVLVRPGASVKLSCKASGYTFTSSWIHWAKQRPGQGLEWIGEIYPNSGNTNYNEKFKGKATLTVDISSSTAYVDLTSLTSEDSAVYYCARLGWLIPLDYWGQGTTLIVSS
VL: B1 VL with T5S, R18K, A19V, I21M, I54M, S69T, Q85K, V89L

Target: recombinant human tau (human, UniProt P10636 1-383)
Test: SPR

recombinant human tau, sequence (P10636 other isoform, or with tags, fused parts or gaps): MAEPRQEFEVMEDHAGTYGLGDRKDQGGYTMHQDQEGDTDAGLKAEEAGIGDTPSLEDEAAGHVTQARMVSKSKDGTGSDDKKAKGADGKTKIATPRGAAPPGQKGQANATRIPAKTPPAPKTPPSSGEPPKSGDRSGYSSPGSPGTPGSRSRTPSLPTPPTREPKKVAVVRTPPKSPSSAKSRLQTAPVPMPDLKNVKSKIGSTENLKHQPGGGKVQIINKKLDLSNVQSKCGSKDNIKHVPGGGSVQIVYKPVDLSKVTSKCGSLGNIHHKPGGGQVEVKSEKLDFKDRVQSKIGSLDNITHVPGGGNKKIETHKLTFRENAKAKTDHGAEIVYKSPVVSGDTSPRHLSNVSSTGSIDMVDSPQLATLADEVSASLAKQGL

Binder	Kd
B1	0.303 nM
B2	0.293 nM
B3	0.277 nM
B4	0.187 nM

— patent US20190330316A1 (published 2019)
